Data: publication PMC10752894, “Structural basis for DNA proofreading” (Nature Communications, 2023)

B1: human mitochondrial DNA polymerase Gamma accessory subunit Polγ_B (residues 26–485) (natural protein, UniProt Q9UHN1 26-485, looked up)
chain: DAGQPELLTERSSPKGGHVKSHAELEGNGEHPEAPGSGEGSEALLEICQRRHFLSGSKQQLSRDSLLSGCHPGFGPLGVELRKNLAAEWWTSVVVFREQVFPVDALHHKPGPLLPGDSAFRLVSAETLREILQDKELSKEQLVAFLENVLKTSGKLRENLLHGALEHYVNCLDLVNKRLPYGLAQIGVCFHPVFDTKQIRNGVKSIGEKTEASLVWFTPPRTSNQWLDFWLRHRLQWWRKFAMSPSNFSSSDCQDEEGRKGNKLYYNFPWGKELIETLWNLGDHELLHMYPGNVSKLHGRDGRKNVVPCVLSVNGDLDRGMLAYLYDSFQLTENSFTRKKNLHRKVLKLHPCLAPIKVALDVGRGPTLELRQVCQGLFNELLENGISVWPGYLETMQSSLEQLYSKYDEMSILFTVLVTETTLENGLIHLRSRDTTMKEMMHISKLKDFLIKYISSAKNV
notes: human DNA polymerase gamma accessory subunit Polγ_B, residues 26-485; It is a homodimer in the holoenzyme, with a proximal copy Polγ_B1 and a distal copy Polγ_B2; also called Polγ_B homodimer; Polγ_B1; source: E. coli BL21-CodonPlus (DE3)-RIPL, purified (Ni-NTA, HiTrap heparin)
B2: DNA20sA/DNA20TS (Complex ONE) (dsDNA)
DNA 1: GAAGACAGTCTGCGGCGCGA
DNA 2: ACACACGCGCGCCGCAGACTGTCTTC
modifications: phosphorothioate before the 3'-terminal A of the primer (racemic)

How the values were obtained:
[1] = molecular target: the molecule itself; assay: cryo-EM structure; Complex ONE: 2 μM WT Polγ holoenzyme with the DNA20*A/DNA20_TS scaffold (phosphorothioate mismatched primer), 10 mM Tris-HCl pH 7.9, 100 mM NaCl, 10 mM DTT, 2 mM MgCl2. Complex THREE: the same with the hydrolyzable DNA20A primer. Gives Structures I, II, VII, VIII, IX
[2] = molecular target: Polγ holoenzyme, cryo-EM Complex ONE (Homo sapiens, UniProt P54098;Q9UHN1 26-1239;26-485); assay: cryo-EM; Complex ONE class 1; EMSA: 40 mM Tris-HCl pH 7.9, 60 mM NaCl, 10 mM MgCl2, 5% glycerol, 20 mM 2-mercaptoethanol, 0.1 mg/ml BSA, 150 nM Cy3 scaffold, 10 min room temperature; 0.5% agarose, 0.5X TBE, 4 °C; conditions: protein: recombinant; tags: N-terminal His (both subunits); copies: 1;2; primer-template, 6 nt 5' template overhang, 3'-terminal A mismatched with G
Polγ holoenzyme, cryo-EM Complex ONE, sequence (P54098 26-1239, one chain of several): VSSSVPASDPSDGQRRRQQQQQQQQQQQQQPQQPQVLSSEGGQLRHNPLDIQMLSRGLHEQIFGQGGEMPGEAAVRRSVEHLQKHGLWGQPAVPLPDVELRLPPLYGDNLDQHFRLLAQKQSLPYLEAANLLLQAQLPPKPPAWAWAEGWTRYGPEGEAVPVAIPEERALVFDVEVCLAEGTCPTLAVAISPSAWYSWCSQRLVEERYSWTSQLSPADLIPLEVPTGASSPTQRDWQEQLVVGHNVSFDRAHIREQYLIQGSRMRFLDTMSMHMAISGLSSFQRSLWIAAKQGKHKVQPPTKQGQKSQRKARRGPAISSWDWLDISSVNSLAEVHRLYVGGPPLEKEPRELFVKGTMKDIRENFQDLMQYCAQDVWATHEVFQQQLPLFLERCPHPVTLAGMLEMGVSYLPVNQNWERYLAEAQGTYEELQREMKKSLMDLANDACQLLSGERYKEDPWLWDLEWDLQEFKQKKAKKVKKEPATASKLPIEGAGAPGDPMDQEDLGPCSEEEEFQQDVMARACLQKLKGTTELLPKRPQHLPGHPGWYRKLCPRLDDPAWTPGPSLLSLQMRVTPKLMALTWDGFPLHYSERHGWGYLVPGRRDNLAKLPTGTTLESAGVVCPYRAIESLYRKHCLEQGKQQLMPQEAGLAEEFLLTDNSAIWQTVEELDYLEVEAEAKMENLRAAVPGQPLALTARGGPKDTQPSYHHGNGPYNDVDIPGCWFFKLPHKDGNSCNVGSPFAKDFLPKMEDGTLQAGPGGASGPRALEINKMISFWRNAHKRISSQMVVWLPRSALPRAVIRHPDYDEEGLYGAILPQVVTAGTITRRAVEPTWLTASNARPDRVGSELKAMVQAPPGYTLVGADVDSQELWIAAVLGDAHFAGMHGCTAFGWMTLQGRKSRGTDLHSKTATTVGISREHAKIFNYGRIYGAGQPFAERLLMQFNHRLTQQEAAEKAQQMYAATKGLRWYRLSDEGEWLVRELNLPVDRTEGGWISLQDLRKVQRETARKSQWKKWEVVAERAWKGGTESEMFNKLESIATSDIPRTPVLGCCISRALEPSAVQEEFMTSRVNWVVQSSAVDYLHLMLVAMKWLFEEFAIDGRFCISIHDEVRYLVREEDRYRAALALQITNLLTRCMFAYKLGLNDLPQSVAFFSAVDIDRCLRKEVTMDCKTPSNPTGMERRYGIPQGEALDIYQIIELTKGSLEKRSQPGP

Row | Binder | binding result [1] | binding result [2]
1 | B1 | binds | –
2 | B2 | – | binds
